Reference: the supplement of paper PMC10567573

B1: TSPAN10 (parent)
chain: EGCGPPLRRWLRANLAASGGYAIA
B2: BCL2L13 (parent)
chain: YIIQQGGWGTVFSLESEEEEYPGI

Variants of: B1
Test: protein stability index of a GFP-peptide fusion (GPS, HEK-293T) (PSI 1-6); higher = more stable
Conditions: c terminus: a fixed tail appended
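Further: lentivirally expressed fusions sorted by FACS into six bins by GFP to DsRed ratio, PSI derived from sequencing read proportions per bin multiplied by bin number.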

Protein stability index of substitutions, site by site:
G2: C 1.68; N 1; F 2.24; E 1.97; T 1.83; D 1.91; S 1.6; K 2.32; A 2; R 2.04; H 2.07; Q 2.33; L 1.57; P 1.85; I 2.15
E1: V 1; Q 1.38; T 1.39; P 1.71; A 1.63; W 2.07; M 2.45; I 1.81; G 2; K 1.42; R 2.57; L 1.81; S 2.37; C 3.75; D 2.06; N 1.96; Y 1.97

Variants of: B2
Test: as above
Conditions: c terminus: a fixed tail appended

Protein stability index of substitutions, site by site:
I24: K 1.75; F 2.58; A 1.39; T 1.1; Y 1.22; G 2.85; V 1.78; M 1.53; D 1.54; C 1.34; H 1.63; N 2.39; S 1.23; P 2.14; L 1.82
E15: S 2.81; Q 2.31; L 2.57; G 1.82; K 1.27; M 3.49; P 2.02; N 2.34; T 1.67; F 2.92
L14: P 1.87; Y 1.84; Q 1.78; E 2.57; R 1.87; V 1.98; S 2.23; I 1.76; T 2.2; H 1; D 2.21; W 1.06; K 1.5
I3: H 2.71; P 2.56; F 2.27; S 2.04; A 1.58; E 2.63
T10: F 2.42; P 1.07; N 2.35; I 3.06; S 2.34; E 1.17; D 1.31; M 1.4; R 1.6; H 1.11
G7: I 2.58; R 1.73; H 2.14; D 1.87; Y 3.6; T 1.45; L 1.82; Q 2.85; A 2.35; C 1.72; N 1.05; P 1.58; E 1.74; S 1.46; K 2.06
S16: I 4.26; H 2.01; D 1.76; C 3.01; K 2.69; G 2.38; A 1.69; T 2.25; M 2.68; Y 2.61; N 1.83; E 1.59; V 1.65; F 2.94
E17: T 2.81; N 2.31; I 1.76; W 2.52; A 1.23; H 2.65; D 1.19; Y 3.21; F 2.7; P 4.07; C 2.77
E18: H 1.85; N 2.86; T 1.99; P 1.53; Q 2.13; L 1.92; D 1.96; S 2.56; F 2.56
G6: W 1.14; K 2.9; N 2.15; P 2.12; S 1.73; R 2.02; F 1.97; H 1.48; E 2.06; T 2.31; V 1.23; D 1.42
V11: Y 2.04; F 2.93; W 1.42; D 2.67; R 1.91; I 1.78; A 2.12; G 3.31; N 1.98; P 1.76; K 1.64; H 2.25; Q 1.86; T 1; L 1.36; S 2.61
E19: T 2.34; Q 3.34; R 1.93; P 1.82; H 2.29; D 1.19; W 2.31; Y 2.41; L 2.41; S 2.39; C 3.36
Y21: T 1.21; H 2.53; N 1.74; D 2.22; M 2.26; E 1.64; Q 2.33; L 2.11; S 1.14; G 2.02; I 1.59; R 1.75
G23: D 2.7; V 1.85; R 1.28; T 2.58; A 1.21; W 1.93; P 1.97; M 2.57; I 1.76; N 1.16; F 1.26; H 1; E 2.43; Q 1.84; L 2.01; K 2.61; Y 2.18
P22: N 1.42; K 2.65; T 2.02; D 2.69; M 1.42; Q 1.47; Y 1.38; A 2; I 3.56; R 1.92; E 2.22; L 2.9; S 2.18; V 1.37; H 1.7
I2: E 5.34; H 2.9; M 2.86; R 2.42; L 2.76; T 2.75; Q 1.98; W 2.38; K 3.31; Y 2.46; G 2.95; F 2.68; A 1.96; D 3.9
Y1: D 3.47; L 1.87; G 4.05; R 3.87; I 1.6; T 3.75; C 2.47; V 2.57; N 4.12; A 3.38; E 2.86; F 1.18; K 3.39; Q 3.18; H 3.19; P 4.31
E20: K 2.15; H 2.46; A 1.13; I 3.47; M 1.31; G 1.51; D 1.71; P 2.87; R 2.98; N 2.17; C 1.91; S 1.82
Q4: W 2.88; V 3.01; A 2.19; E 1.4; N 1.58; R 2.35; H 1.2
W8: V 1.53; E 3.31; Q 3.93; S 3.17; Y 2.84; T 2.84; G 2.58; C 2.31; K 2.1; N 3.09; H 2.81; A 2.02; D 2.56; I 1.66; F 2.83; L 1.99; P 2.97; R 2.37; M 1.88
G9: L 3.44; Q 1.81; I 3.4; V 3.32; A 1.62; R 1.06; E 2.65; P 1.09; S 1.68; K 1.7; H 1.42; T 3; D 1.13; C 3.36
S13: C 1.49; D 2.72; F 2.46; N 3.23; P 1.38; Y 1.71; H 1.43; V 2.28; T 1.62; E 1.33; L 1.24; G 1.74
F12: H 1.75; P 1.58; R 1.83; L 1.81; E 2.66; I 1.64; N 1.56; V 1.65; K 2.39; Q 1.24; T 2.13; D 2.35; A 2.5; M 2.98; S 2.03
Q5: N 1.73; M 1.67; E 1.33; G 1.69; T 1.72; W 2.16; R 1.92
